From paper PMC466950 (Science Advances, 2024)
Values belong to the molecule of their own block, whether it stands above or below them.

How the values were obtained:
[1] = target: human E2 subunit within hCore (human) (UniProt P10515); experiment: gel densitometry of the purified complex
[2] = target: porcine E2 of native PDHc (Sus scrofa domesticus (endogenous in porcine liver)); experiment: gel densitometry of the purified complex
cryo-EM structure = target: the molecule itself; experiment: cryo-EM structure

E3BP chains per 60-subunit core (E3BP molecules per 60-subunit assembly) [1]: 13
Molecule: human E3BP subunit within hCore (from UniProt O00330 54-501) (natural protein)

E3BP chains per 60-subunit core (E3BP molecules per 60-subunit assembly) [2]: 13
Molecule: porcine E3BP of native PDHc (natural protein)

B1: human E2 homo-60-mer (enzyme)
chain: SLPPHQKVPLPSLSPTMQAGTIARWEKKEGDKINEGDLIAEVETDKATVGFESLEECYMAKILVAEGTRDVPIGAIICITVGKPEDIEAFKNYTLDSSAAPTPQAAPAPTPAATASPPTPSAQAPGSSYPPHMQVLLPALSPTMTMGTVQRWEKKVGEKLSEGDLLAEIETDKATIGFEVQEEGYLAKILVPEGTRDVPLGTPLCIIVEKEADISAFADYRPTEVTDLKPQVPPPTPPPVAAVPPTPQPLAPTPSAPCPATPAGPKGRVFVSPLAKKLAVEKGIDLTQVKGTGPDGRITKKDIDSFVPSKVAPAPAAVVPPTGPGMAPVPTGVFTDIPISNIRRVIAQRLMQSKQTIPHYYLSIDVNMGEVLLVRKELNKILEGRSKISVNDFIIKASALACLKVPEANSSWMDTVIRQNHVVDVSVAVSTPAGLITPIVFNAHIKGVETIANDVVSLATKAREGKLQPHEFQGGTFTISNLGMFGIKNFSAIINPPQACILAIGASEDKLVPADNEKGFDVASMMSVTLSCDHRVVDGAVGAQWLAEFRKYLEKPITMLL
stoichiometry N (cryo-EM structure): 60 subunits

B2: human E2 subunit within hCore (enzyme)
chain: SLPPHQKVPLPSLSPTMQAGTIARWEKKEGDKINEGDLIAEVETDKATVGFESLEECYMAKILVAEGTRDVPIGAIICITVGKPEDIEAFKNYTLDSSAAPTPQAAPAPTPAATASPPTPSAQAPGSSYPPHMQVLLPALSPTMTMGTVQRWEKKVGEKLSEGDLLAEIETDKATIGFEVQEEGYLAKILVPEGTRDVPLGTPLCIIVEKEADISAFADYRPTEVTDLKPQVPPPTPPPVAAVPPTPQPLAPTPSAPCPATPAGPKGRVFVSPLAKKLAVEKGIDLTQVKGTGPDGRITKKDIDSFVPSKVAPAPAAVVPPTGPGMAPVPTGVFTDIPISNIRRVIAQRLMQSKQTIPHYYLSIDVNMGEVLLVRKELNKILEGRSKISVNDFIIKASALACLKVPEANSSWMDTVIRQNHVVDVSVAVSTPAGLITPIVFNAHIKGVETIANDVVSLATKAREGKLQPHEFQGGTFTISNLGMFGIKNFSAIINPPQACILAIGASEDKLVPADNEKGFDVASMMSVTLSCDHRVVDGAVGAQWLAEFRKYLEKPITMLL
modifications: one lipoamide in each of the two lipoyl domains (fully lipoylated by ESI-MS); N-terminal methionine present
binding result (cryo-EM structure): binds
